Target: not2_yeast CDC36 (UniProt P06100)
Chain of UniProt P06100 (P06100 whole entry): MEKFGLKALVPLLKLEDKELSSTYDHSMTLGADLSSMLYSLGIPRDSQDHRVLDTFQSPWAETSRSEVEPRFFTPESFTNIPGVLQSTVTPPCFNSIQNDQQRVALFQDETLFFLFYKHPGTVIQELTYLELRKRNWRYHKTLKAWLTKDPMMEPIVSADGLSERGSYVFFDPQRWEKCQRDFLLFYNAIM

| effect of a mutation on the interaction | Substance |
| --- | --- |
| disrupting interaction strength | General negative regulator of transcription subunit 1 (Saccharomyces cerevisiae), P25655 R1811E;L1814E |
| disrupting interaction strength | General negative regulator of transcription subunit 1 (Saccharomyces cerevisiae), P25655 F1751E |
